From patent US10441541B2, “Methods and compositions for treating osteoarthritis and promoting cartilage formation” (New York University, priority 2015, dated 2019)

Tests used:
[1] = system: neonatal murine chondrocytes; test: Aggrecan expression in cultured chondrocytes, Alcian Blue staining; format: cell-based; settings: 1 μM
Excerpt: (Gosset et al., Nat Protoc 2008; 3:1253-1260). […] Following digital quantitation of alcian-blue stained aggrecan in the tissue wells, aggrecan levels are expressed as % control (±SEM) as provided in FIG. 4B.

A3 adenosine receptor = target: T1, A3 adenosine receptor (Homo sapiens, UniProt P0DMS8); settings: cited from earlier work
T1 sequence (P0DMS8 1-318): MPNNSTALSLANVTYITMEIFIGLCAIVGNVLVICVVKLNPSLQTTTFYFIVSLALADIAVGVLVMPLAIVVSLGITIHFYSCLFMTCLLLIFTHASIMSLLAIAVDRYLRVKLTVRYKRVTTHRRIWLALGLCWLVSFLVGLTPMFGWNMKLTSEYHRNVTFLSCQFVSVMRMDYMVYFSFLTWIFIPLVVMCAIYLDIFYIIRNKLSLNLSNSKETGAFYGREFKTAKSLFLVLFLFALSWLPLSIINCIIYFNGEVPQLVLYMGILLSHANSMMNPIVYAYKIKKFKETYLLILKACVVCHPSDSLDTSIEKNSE

[2] = system: primary murine chondrocytes; test: ATP and adenosine content and release of primary chondrocytes after IL-1β; format: cell-based, mouse; settings: 5 ng/ml for 24 hours
Description: (§1) Articular chondrocytes were obtained from C57BL/6 WT or A2AKO newborn mice following a protocol previously described (Thirion et al., Methods in Molecular Medicine 2004; 100:1-14), Primary chondrocytes (80% confluence) were starved for 5h. Cells were treated for 24h with mouse recombinant IL-1β (5 ng/ml) in DMEM containing 10% FBS and 1% Penicillin-Steptomycin. For intracellular ATP assay, cells were collected and lysed with RIPA buffer containing proteases and phosphatase inhibitors. […] ATP was assayed using a bioluminescent ATP determination kit following the manufacturer's instructions. Adenosine was extracted and tested by HPLC as previously described. ATP and adenosine data were normalized following protein quantification.

murine chondrocytes = test: Expression of adenosine-related enzymes and transporters in chondrocytes (RT-PCR, western blot, immunofluorescence); format: cell-based, mouse
Description: as §1
After cell treatments, the total protein extracts were collected and stored at −80° C. Total protein fractions were quantified using the BCA kit (Thermo Scientific). Western blotting was performed by electrophoresing […] protein through a 10% polyacrylamide gel followed by transfer of proteins to nitrocellulose membranes. […] Membranes were scanned with Li-cor Odyssey equipment and the intensities of the protein bands were quantified by densitometric analysis using Image Studio 2.0 38 software. […]

[3] = system: rat tibial plateau explants; test: Adenosine release from tibial plateau explants, with and without mechanical loading; format: cell-based
Description: 14 to 19 week old male Sprague-Dawly rats were sacrificed and their tibias were harvested. The soft tissue was removed from the bone and the proximal tibia was cut in the growth plate region by using a Low Speed Diamond Wheel Saw-Model 650 (South Bay Technologies, CA, USA). Tibia surface was cut separating the medial and the lateral condyle. Samples were incubated in media containing DMEM-F12, FBS 10%, 100 ug/ml of ascorbic acid, 2 mM of […], 1% of Penicillin, Streptomycin and amphotericin. The explants were incubated with or without IL-1β (5 ng/ml) for 24 hours. After incubation the samples were placed in a glass plate in new media without FBS. The loading was programmed using the block waveform feature in Wintest 7 software of BOSE Electroforce 3200 system (Bose Inc., MN, USA). The specimens were preloaded with uniaxial compressive load that was applied at 0.005 mm/s loading rate under displacement control up to 0.01 mm. Samples undergo cyclic load at 2 Hz for 1800 cycles at 1.5N compressive load under load control. Dwell for 2700s immediately after the end of 1800th cycle. Media samples were collected after 1, 10 and 15 minutes during loading and 15 and 30 minutes after loading. Samples collected for ATP assay were stored immediately on ice.

## CCNC(=O)[C@H]1O[C@@H](n2cnc3c(N)nc(NCCc4ccc(CCC(=O)O)cc4)nc32)[C@H](O)[C@@H]1O [CGS21680]
[1]; Alcian Blue staining of cultured chondrocyte matrix, preliminary experiments
  aggrecan expression: nearly two-fold increase
[1]; in the absence or presence of IL-1
  amount of alcian blue-stained material in wells: greatest amount of alcian blue-stained material

## Nc1ncnc2c1ncn2[C@@H]1O[C@H](CO)[C@@H](O)[C@H]1O [adenosine]
A3 adenosine receptor
  affinity for adenosine: low-micromolar range

B1: IL-1β: Mouse and rat recombinant Il-1β from R&D Systems, inflammatory stimulus (protein, UniProt P10749 118-269, looked up)
Interleukin-1 beta: VPIRQLHYRLRDEQQKSLVLSDPYELKALHLNGQNINQQVIFSMSFVQGEPSNDKIPVALGLKGKNLYLSCVMKDGTPTLQLESVDPKQYPKKKMEKRFVFNKIEVKSKVEFESAEFPNWYISTSQAEHKPVFLGNNSGQDIIDFTMESVSS
modifications: rat protein also used
notes: Mouse and rat recombinant Il-1β from R&D Systems, inflammatory stimulus
[2]
  ATP released into the supernates: 66±3 % of control
  adenosine concentration in the supernates: 65 % of control
  intracellular ATP: 61±9 % of control
[2]; n=9, control 143±14 nM
  adenosine concentration in the supernates: 94 ± 14 nM
Murine chondrocytes; 5 ng/ml for 24 hours, RT-PCR, n=4
  message of ENTPD1, NT5E, PANX1, SLC29A1, SLC29A2 and ANKH: significantly decrease message
Murine chondrocytes; 5 ng/ml, western blot and immunofluorescence
  NT5E protein expression and localization on chondrocyte surface: decreased NTSE protein expression and its localization on chondrocyte surface
[3]; explants without loading
  adenosine release from cartilage explants: reduced adenosine release
[3]; pre-treatment 5 ng/ml for 24 hours, loading within physiologic range, n=5, without pre-treatment 1657±177 nM
  adenosine release after weight loading: 960 ± 57 nM
